Reference: publication doi:10.1101/2021.03.24.436879

Molecular target: F-actin labeled at Cys-374 with fluorescein-5-maleimide (FMAL-actin) (rabbit) (UniProt P68135)
Assay: FRET or BRET

Kd [nM]	donor lifetime τDA of FMAL-actin with 20 μM TMR-C0-C2^Cys225 (τD = 4.2 ns) [ns]	Substance
3000	–	TMR-C0-C2^Cys225 of human cMyBP-C phosphorylated by PKA (domain or fragment)
1000	2	single-cysteine C0-C2^Cys225 of human cMyBP-C labeled with tetramethylrhodamine (TMR-C0-C2^Cys225) (domain or fragment)
